Test results: patent publication US20200140504A1 (GENESEN, published 2020)
Primed or numbered codes have the meaning given here. Ends that are not written are not given here. FITC′ = fluorescein isothiocyanate

Key:
[1] = target: T1, MyD88 (myeloid differentiation 88), in THP1 human monocytes (human, UniProt Q99836 1-296); test: confocal immunofluorescence, THP1 cells treated with TIP1-FITC and LPS
T1 construct: whole, on cells; Endogenous intracellular protein seen by immunofluorescence; Species follows from the THP1 human cells
Procedure: (§1) RAW 264.7 cells and THP1 cells were dispensed into 24-well plates to a cell number of 2×10⁵ cells/well, and then grown in an incubator overnight. Subsequently, combined treatment with TIP1 and LPS was performed. After 24 hours, the RAW 264.7 cells and the THP1 cells were fixed with 3.7% formaldehyde (Sigma-Aldrich Co. LLC) for 15 minutes, and immersed into 0.2% Triton X-100 (AMRESCO, Solon, Ohio, USA) for 15 minutes. Then, washing with PBS was performed three times and blocking with 2% BSA solution was performed. […] Subsequently, the cells were stained at room temperature for 15 minutes using 5 μM Hoechst 33258 (Sigma-Aldrich Co.), and the number of the fluorescently stained cells was counted using a confocal laser scanning microscope (LSM-700, Carl Zeiss MicroImaging GmbH). The images were analyzed using Zen 2009 software.
(§2) In addition, in order to identify binding of TIP1 to TLR4, TIP1-FITC was prepared by binding fluorescein isothiocyanate (FITC) to the N-terminus of TIP1. The THP1 cells in Example 1-2 were subjected to treatment with TIP1 (TIP1-FITC) or to combined treatment with LPS and TIP1, and then the number of fluorescently stained cells were counted using immunofluorescent staining and a confocal microscope according to the method described in Examples 2-4, thereby analyzing interactions between the proteins. […]

[2] = target: T2, Toll-like receptor 4 (TLR4), human (human, UniProt O00206 24-839); test: confocal laser scanning microscopy, THP1 cells treated with TIP1-FITC with or without LPS
T2 construct: whole, on cells; also called hTLR4; human TLR4
Procedure: as §1, §2

[3] = target: T2, Toll-like receptor 4 (TLR4), human; test: conclusion of Experimental Example 8 (SPR on TIR-domain peptides, data not given; confocal microscopy)

T2 sequence (O00206 24-839): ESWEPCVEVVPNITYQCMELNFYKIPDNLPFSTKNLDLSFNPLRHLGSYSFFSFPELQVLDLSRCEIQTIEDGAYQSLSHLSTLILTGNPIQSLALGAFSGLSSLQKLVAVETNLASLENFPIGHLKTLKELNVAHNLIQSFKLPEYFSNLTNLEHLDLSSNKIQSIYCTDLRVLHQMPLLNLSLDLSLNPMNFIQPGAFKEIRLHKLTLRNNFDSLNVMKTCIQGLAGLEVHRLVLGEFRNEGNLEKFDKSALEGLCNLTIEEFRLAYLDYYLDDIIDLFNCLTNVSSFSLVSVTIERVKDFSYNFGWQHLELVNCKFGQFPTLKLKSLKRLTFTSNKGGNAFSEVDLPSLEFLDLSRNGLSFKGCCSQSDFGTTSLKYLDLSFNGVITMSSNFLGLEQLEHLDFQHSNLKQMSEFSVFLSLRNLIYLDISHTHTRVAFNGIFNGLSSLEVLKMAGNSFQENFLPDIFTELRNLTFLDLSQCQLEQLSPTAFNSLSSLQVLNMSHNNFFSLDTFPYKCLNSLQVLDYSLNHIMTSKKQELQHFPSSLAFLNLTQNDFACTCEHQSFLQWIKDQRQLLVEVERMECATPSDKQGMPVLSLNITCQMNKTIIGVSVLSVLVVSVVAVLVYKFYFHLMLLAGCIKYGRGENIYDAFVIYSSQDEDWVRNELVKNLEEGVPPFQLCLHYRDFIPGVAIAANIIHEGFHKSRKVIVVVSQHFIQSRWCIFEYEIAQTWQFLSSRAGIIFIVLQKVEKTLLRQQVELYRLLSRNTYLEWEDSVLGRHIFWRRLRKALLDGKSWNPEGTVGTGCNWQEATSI
T1 sequence (Q99836 whole entry): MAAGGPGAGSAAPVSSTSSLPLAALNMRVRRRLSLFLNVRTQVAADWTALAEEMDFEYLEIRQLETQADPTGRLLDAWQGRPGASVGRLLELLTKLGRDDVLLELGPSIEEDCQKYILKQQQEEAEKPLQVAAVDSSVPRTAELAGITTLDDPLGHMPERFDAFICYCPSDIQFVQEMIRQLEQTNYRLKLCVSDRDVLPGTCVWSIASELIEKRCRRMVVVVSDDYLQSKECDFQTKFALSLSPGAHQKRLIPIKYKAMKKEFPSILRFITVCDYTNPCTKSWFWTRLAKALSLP

Binder | binding result [1] | binding result [2] | binding result [3]
{FITC′}-RQIKIWFQNRRMKWKKSHCRVLLI (used for confocal microscopy; also called TIP1 (TIP1-FITC)) [TIP1-FITC] | binds | binds | –
RQIKIWFQNRRMKWKKSHCRVLLI [TIP1 (Toll-like receptor inhibitory peptide 1)] | – | – | binds
